Assay [1] has as its target rHuman P-Cadherin/Fc Chimera, CF (R&D Systems Cat#861-PC) (human) (UniProt P22223). Nature of the assay: MSD ECL multi-spot assay, antigen spotted on plate, Fab 1.57 uM; blank spot 797.
Assay [2] concerns the target rHuman EGF R/Fc Chimera, CF (R&D Systems Cat#344-ER) (human) (UniProt P00533). Briefly: ECL (MSD Multi-Spot) binding, antigen spotted on plate; Fab 0.0625 nM.
Assay [3] concerns the target rHuman ErbB2/Fc Chimera, CF (R&D Systems Cat#1129-ER) (human) (UniProt P04626). The description is as above.
For assay [4], the target named is rHuman HGF R/c-MET/Fc Chimera, CF (R&D Systems Cat#358-MT/CF) (human) (UniProt P08581). Described as above.
The target in assay [5] is rHuman EGF R/Fc Chimera, CF (R&D Systems Cat#344-ER) (human) (UniProt P00533). Briefly: ECL (MSD Multi-Spot) binding, antigen spotted on plate; Fab 25 nM.
The target in assay [6] is rHuman ErbB2/Fc Chimera, CF (R&D Systems Cat#1129-ER) (human) (UniProt P04626). The description is as above.
Assay [7] deals with rHuman HGF R/c-MET/Fc Chimera, CF (R&D Systems Cat#358-MT/CF) (human) (UniProt P08581). The description is as above.
Assay [8] addresses rHuman EGF R/Fc Chimera, CF (R&D Systems Cat#344-ER) (human) (UniProt P00533). Briefly: ECL (MSD Multi-Spot) binding, antigen spotted on plate; Fab 500 nM.
The target in assay [9] is rHuman ErbB2/Fc Chimera, CF (R&D Systems Cat#1129-ER) (human) (UniProt P04626). The description is as above.
In assay [10] the target is rHuman HGF R/c-MET/Fc Chimera, CF (R&D Systems Cat#358-MT/CF) (human) (UniProt P08581). The assay is described as above.
Assay [11] concerns the target rHuman EGF R/Fc Chimera, CF (R&D Systems Cat#344-ER) (human) (UniProt P00533). Nature of the assay: ECL (MSD Multi-Spot) binding, antigen spotted on plate; Fab 1.25 nM.
The target of assay [12] is rHuman ErbB2/Fc Chimera, CF (R&D Systems Cat#1129-ER) (human) (UniProt P04626). Described as above.
The target of assay [13] is rHuman HGF R/c-MET/Fc Chimera, CF (R&D Systems Cat#358-MT/CF) (human) (UniProt P08581). The description is as above.

B1: Fab VH1-46_IGHD3-10*01_IGHJ4*01 & O1_IGKJ1*01 (Fab, V domains shown)
VH: QVQLVQSGAEVKKPGASVKVSCKASGYTFTSYYMHWVRQAPGQGLEWMGIINPSGGSTSYAQKFQGRVTMTRDTSTSTVYMELSSLRSEDTAVYYCAREYYYGSGSYYNDYFDYWGQGTLVTVSS
VL: DIVMTQTPLSLPVTPGEPASISCRSSQSLLDSDDGNTYLDWYLQKPGQSPQLLIYTLSYRASGVPDRFSGSGSGTDFTLKISRVEAEDVGVYYCMQRIEFPSWTFGQGTKVEIK
Regarding B1, the ECL signal in assay [1] was determined as 2030.

B2: Fab VH5-51_IGHD5-18*01>3_IGHJ4*01_G100K_G104T & V3-4_IGLJ1*01 (Fab, V domains shown)
VH: EVQLVQSGAEVKKPGESLKISCKGSGYSFTSYWIGWVRQMPGKGLEWMGIIYPGDSDTRYSPSFQGQVTISADKSISTAYLQWSSLKASDTAMYYCARRKYSYTYDYFDYWGQGTLVTVSS
VL: QTVVTQEPSFSVSPGGTVTLTCGLSSGSVSTSYYPSWYQQTPGQAPRTLIYSTNTRSSGVPDRFSGSILGNKAALTITGAQADDESDYYCVLYMGSGISYVFGTGTKVTVL
On to B2, for which the ECL signal in assay [2] came to 736; in assay [3] it was 692; in assay [4], 643; in assay [5], 821; in [6], 927; in assay [7], 805. The ECL signal in assay [8] is 1110; in assay [9], 957; in assay [10], 1300; in [11] it was 729; in [12], 695; in assay [13], 774.
